Assays:
[1] = system: Csx1-Crn2 H495A (Marinitoga piezophila); experiment: EMSA; settings: apparent; both CARF and Crn2 sites intact, no cA4 cleavage in Crn2 site; cyclic tetra-adenylate, head-to-tail closed ring (no free 5' or 3' end); EMSA: 10 nM labelled cA4, 20 mM Tris-HCl pH 7.5, 150 mM NaCl, 2 mM MgCl2, 2 uM BSA, 10 min at 25 C; native 15% PAGE in 1x TBE at 28 C
[2] = system: Csx1-Crn2 S452Y (Marinitoga piezophila); experiment: EMSA; settings: cyclic tetra-adenylate, head-to-tail closed ring (no free 5' or 3' end); EMSA: 10 nM labelled cA4, 20 mM Tris-HCl pH 7.5, 150 mM NaCl, 2 mM MgCl2, 2 uM BSA, 10 min at 25 C; native 15% PAGE in 1x TBE at 28 C

AAAA [cA4 (cyclic tetra-adenylate)]
Kd [1]: 20 nM
Kd [2]: 1000 nM

— paper PMC7293037, “Fuse to defuse: a self-limiting ribonuclease-ring nuclease fusion for type III CRISPR defence” (Nucleic Acids Research, 2020)
